This is an account of results in US20050266509.

Residue numbers refer to the chain shown, from its start.

Data set [1] deals with NR2B, full length clone (NMDA receptor subunit), Q13224.
Data set [2] deals with constitutive active Src kinase.

Sequence of NR2B, full length clone (NMDA receptor subunit), Q13224 (Q13224 27-1484): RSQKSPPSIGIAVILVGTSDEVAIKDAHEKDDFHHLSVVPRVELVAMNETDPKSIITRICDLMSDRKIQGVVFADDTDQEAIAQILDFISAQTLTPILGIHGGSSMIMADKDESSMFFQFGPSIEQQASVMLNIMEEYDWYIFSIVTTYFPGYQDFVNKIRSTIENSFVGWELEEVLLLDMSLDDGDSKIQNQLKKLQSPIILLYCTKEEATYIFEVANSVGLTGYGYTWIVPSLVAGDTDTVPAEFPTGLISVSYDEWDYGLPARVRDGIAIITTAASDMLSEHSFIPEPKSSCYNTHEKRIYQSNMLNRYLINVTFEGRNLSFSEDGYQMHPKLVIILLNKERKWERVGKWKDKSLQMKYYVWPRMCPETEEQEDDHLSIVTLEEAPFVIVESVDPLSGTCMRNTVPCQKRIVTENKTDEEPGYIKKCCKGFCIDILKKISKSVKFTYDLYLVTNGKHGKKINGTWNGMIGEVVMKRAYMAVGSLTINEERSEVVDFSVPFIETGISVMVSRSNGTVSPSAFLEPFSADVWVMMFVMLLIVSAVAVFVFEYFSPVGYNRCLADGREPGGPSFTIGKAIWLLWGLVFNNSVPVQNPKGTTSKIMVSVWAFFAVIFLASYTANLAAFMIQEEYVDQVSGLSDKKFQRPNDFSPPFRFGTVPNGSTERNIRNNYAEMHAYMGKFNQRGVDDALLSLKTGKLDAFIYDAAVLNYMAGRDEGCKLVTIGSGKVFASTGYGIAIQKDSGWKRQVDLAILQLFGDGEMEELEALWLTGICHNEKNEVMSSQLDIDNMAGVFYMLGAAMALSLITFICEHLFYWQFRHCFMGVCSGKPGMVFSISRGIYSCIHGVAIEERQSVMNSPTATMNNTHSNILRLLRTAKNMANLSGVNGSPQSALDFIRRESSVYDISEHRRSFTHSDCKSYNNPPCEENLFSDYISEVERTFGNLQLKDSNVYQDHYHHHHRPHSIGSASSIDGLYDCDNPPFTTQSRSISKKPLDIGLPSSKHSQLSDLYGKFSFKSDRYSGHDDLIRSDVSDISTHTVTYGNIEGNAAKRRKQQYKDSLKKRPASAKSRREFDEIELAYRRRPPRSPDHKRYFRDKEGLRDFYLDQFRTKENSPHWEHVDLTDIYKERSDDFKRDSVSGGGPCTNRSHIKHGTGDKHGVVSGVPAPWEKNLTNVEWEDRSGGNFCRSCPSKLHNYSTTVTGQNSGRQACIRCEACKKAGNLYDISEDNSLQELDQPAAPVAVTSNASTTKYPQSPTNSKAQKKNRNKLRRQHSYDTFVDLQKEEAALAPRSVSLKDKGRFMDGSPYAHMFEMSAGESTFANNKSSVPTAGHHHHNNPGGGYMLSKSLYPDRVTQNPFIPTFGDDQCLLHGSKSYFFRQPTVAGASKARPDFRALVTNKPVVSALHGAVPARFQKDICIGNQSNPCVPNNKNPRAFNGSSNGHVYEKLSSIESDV

B1: PTPMEG, full length clone (amino-terminal myc-tag, c-terminal HA tag) (protein)
chain: MTSRFRLPAGRTYNVRASELARDRQHTEVVCNILLLDNTVQAFKVNKHDQGQVLLDVVFKHLDLTEQDYFGLQLADDSTDNPRWLDPNKPIRKQLKRGSPYSLNFRVKFFVSDPNKLQEEYTRYQYFLQIKQDILTGRLPCPSNTAALLASFAVQSELGDYDQSENLSGYLSDYSFIPNQPQDFEKEIAKLHQQHIGLSPAEAEFNYLNTARTLELYGVEFHYARDQSNNEIMIGVMSGGILIYKNRVRMNTFPWLKIVKISFKCKQFFIQLRKELHESRETLLGFNMVNYRACKNLWKACVEHHTFFRLDRPLPPQKNFFAHYFTLGSKFRYCGRTEVQSVQYGKEKANKDRVFARSPSKPLARKLMDWEVVSRNSISDDRLETQSLPSRSPPGTPNHRNSTFTQEGTRLRPSSVGHLVDHMVHTSPSEVFVNQRSPSSTQANSIVLESSPSQETPGDGKPPALPPKQSKKNSWNQIHYSHSQQDLESHINETFDIPSSPEKPTPNGGIPHDNLVLIRMKPDENGRFGFNVKGGYDQKMPVIVSRVAPGTPADLCVPRLNEGDQVVLINGRDIAEHTHDQVVLFIKASCERHSGELMLLVRPNAVYDVVEEKLENEPDFQYIPEKAPLDSVHQDDHSLRESMIQLAEGLITGTVLTQFDQLYRKKPGMTMSCAKLPQNISKNRYRDISPYDATRVILKGNEDYINANYINMEIPSSSIINQYIACQGPLPHTCTDFWQMTWEQGSSMVVMLTTQVERGRVKCHQYWPEPTGSSSYGCYQVTCHSEEGNTAYIFRKMTLFNQEKNESRPLTQIQYIAWPDHGVPDDSSDFLDFVCHVRNKRAGKEEPVVVHCSAGIGRTGVLITMETAMCLIECNQPVYPLDIVRTMRDQRAMMIQTPSQYRFVCEAILKVYEEGFVKPLTTSTNK
For B1, the “NR2B tyrosine phosphorylation, western blot with an NR2B phosphospecific antibody” value in data set [1] is “In presence of the active wildtype PTPMEG phosphatase, both the NR2B subunit as well as Src kinase were dephosphorylated”. Moreover, in data set [2], the “Src phosphorylation at position 418, western blot with anti PY418 antibody” value is given as “In presence of the active wildtype PTPMEG phosphatase, both the NR2B subunit as well as Src kinase were dephosphorylated”; the “phosphorylation at Y418, western blot with a Src/fyn specific phosphoantibody” value is “In presence of PTPMEG (identified with a c-myc antibody from Upstate) there is a dephosphorylation of Src and fyn at position Y418”.

B2: PTPMEG-CS (inactive PTPase), full length clone (amino-terminal myc-tag, c-terminal HA tag) (protein)
chain: B1 chain with C852S
B2: the “NR2B tyrosine phosphorylation, western blot” value in data set [1] is “Dephosphorylation of NR2B and Src kinase was reversed by addition of dephostatin, and unaffected in presence of the dominant negative form of PTPMEG (CS)”. Also, in data set [2], the “Src phosphorylation at position 418, western blot” value is “Dephosphorylation of NR2B and Src kinase was reversed by addition of dephostatin, and unaffected in presence of the dominant negative form of PTPMEG (CS)”.
